Results reported in patent US20220306744A1 (CRESCENDO BIOLOGICS, published 2022).
Where a chain is given by its changes, count along the chain named.

B1: 1.2b (VHH)
VHH: EVQLLESGGGLVKPGGSLRLSCAASGFTFSDYTMTWMRQAPGKGLEWVSYISTGGSIKYYTDSVKGRFTISRDNAKNSLYLQMNSLRADDTAVYYCAREAPLRLGESPHDAFDIWGQGTMVTVSS
B2: 1.11b (VHH)
VHH: B1 VHH with T33D, M37I, L45Q, T53R, I57T, T61A, D89E, S107T
B3: 1.52b (VHH)
VHH: B1 VHH with E1Q, L5V, Y32N, T33S, T53S, S56G, I57V, T61A
B4: 1.23b (VHH)
VHH: B1 VHH with E1Q, V2I, Q3T, L5K, T35S, S56T
B5: 1.36b (VHH)
VHH: B1 VHH with L5V, S56T, Y80F
B6: 1.55b (VHH)
VHH: B1 VHH with E1Q, L5V, Y32N, T33S, T53S, S56G, I57V, Y59F, T61A, W115S
B7: 1.64b (VHH)
VHH: B1 VHH with L5V, Y32S, T33S, T53S, S56G, I57V, Y59F, T61A, W115S
notes: also called Humabody 1.64b
B8: 1.39b (VHH)
VHH: B1 VHH with E1Q, L5Q
B9: 1.65b (VHH)
VHH: B1 VHH with E1Q, L5V, Y32S, T33S, T53S, S56G, I57V, Y59F, T61A, W115S
B10: 1.46b (VHH)
VHH: QVQLVESGGGLVKPGGSLRLSCAASGFTFSDSSMSWMRQAPGKGLEWVSYISSGGGVIFYADSVKGRFTISRDNAKNSLYLQMNSLRADDTAVYYCAREAPLRLGESPHDAFDIWGQGTMVTVSS
B11: 1.72b (VHH)
VHH: B10 VHH with W115S
B12: 1.71b (VHH)
VHH: B10 VHH with S30G, D31G, S35T, I58K, A61T, W115S
B13: 1.74b (VHH)
VHH: B10 VHH with Q1E, S35T, M37I, I58K, A61T, W115S
B14: 1.35b (VHH)
VHH: B1 VHH with A88V
B15: 1.53b (VHH)
VHH: B10 VHH with S32N, S35T, G56S, I58K
B16: 1.67b (VHH)
VHH: B10 VHH with D31G, S35T, W115S
B17: 1.9b (VHH)
VHH: B1 VHH with E1Q, L5V, S30G, S56T, N84D
B18: 1.4b (VHH)
VHH: B1 VHH with E1Q, L5V, T33Y, T35I, T53G, S56T, I57T, S107T
B19: 1.22b (VHH)
VHH: B1 VHH with L5V
B20: 1.54b (VHH)
VHH: B10 VHH with S32D, S35T
B21: 1.16b (VHH)
VHH: B1 VHH with L5V, T35S
B22: 1.10b (VHH)
VHH: B1 VHH with E1Q, L5V, T35S, V48I, T53L, S56N, I57T
B23: 1.6b (VHH)
VHH: B1 VHH with S56T, N84S
B24: 1.29b (VHH)
VHH: B1 VHH with E1Q, Q3T, L5K, T35S, S56T
B25: 1.30b (VHH)
VHH: B1 VHH with E1Q, Q3T, L5K, K76R, D89E
B26: 1.27b (VHH)
VHH: B1 VHH with E1Q, Q3T, L5K
B27: 1.44b (VHH)
VHH: B10 VHH with S32N, S35T, G56A, I58K
B28: 1.62b (VHH)
VHH: B10 VHH with S35T, G56A, I58K, A61T, W115S
B29: 1.31b (VHH)
VHH: B1 VHH with E1Q, Q3T, L5K, I57T
B30: 1.70b (VHH)
VHH: B10 VHH with S30G, S35T, G56A, I58K, A61T, W115S
B31: 1.43b (VHH)
VHH: B10 VHH with S35T
B32: 1.66b (VHH)
VHH: B10 VHH with S35T, I58K, A61T, N84D, I114T, W115S
B33: 1.47b (VHH)
VHH: B10 VHH with S32N
B34: 1.50b (VHH)
VHH: B10 VHH with S32N, S35T, G56T, V57I, I58K
B35: 1.48b (VHH)
VHH: B10 VHH with S35T, I58K
B36: 1.34b (VHH)
VHH: B1 VHH with L5V, I57V
B37: 1.56b (VHH)
VHH: B10 VHH with S32N, S35T, G56A, I58K, W115L
B38: 1.37b (VHH)
VHH: B1 VHH with E1Q, L5V, Y80F
B39: 1.73b (VHH)
VHH: B10 VHH with S25T, S35T, S53A, I58R, A61T, W115S
B40: 1.8b (VHH)
VHH: B1 VHH with L5V, D89G
B41: 1.63b (VHH)
VHH: B10 VHH with Q1E, S35T, I58K, A61T, W115S
B42: 1.32b (VHH)
VHH: QVTLKESGGGLVKPGGSLRLSCAASGFTFSDDYMMWIRQAPGKGLEWVSYISSGGSIIYYADSVKGRFTISRDNAKNSLYLQMNSLRAEDTAVYYCAREAPLRLGESPHDAFDIRGQGTMVTVSS
B43: 1.42b (VHH)
VHH: B10 VHH with S32N, S35T, I58K
B44: 1.21b (VHH)
VHH: B1 VHH with L5V, I114T
B45: 1.3b (VHH)
VHH: B1 VHH with E1Q, L5V
B46: 1.59b (VHH)
VHH: B10 VHH with S32N, G56S, I58K
B47: 1.58b (VHH)
VHH: B10 VHH with S32N, S33T, S35T, S53T, I58K
B48: 1.19b (VHH)
VHH: B1 VHH with E1Q, L5V, D89E, S107T
B49: 1.5b (VHH)
VHH: B1 VHH with L5V, S56N, I57T
B50: 1.49b (VHH)
VHH: B10 VHH with S53T, I58K
B51: 1.60b (VHH)
VHH: B10 VHH with S32N, S35T, S53T, I58K, F59Y
B52: 1.20b (VHH)
VHH: B1 VHH with T53S, Y59F, T61A, D89E
B53: 1.17b (VHH)
VHH: B1 VHH with L5V, A88V
B54: 1.51b (VHH)
VHH: B10 VHH with S35T, G56A, I58K, A61T
B55: 1.45b (VHH)
VHH: B10 VHH with S32Y
B56: 1.69b (VHH)
VHH: B10 VHH with S32N, W115S
B57: 1.68b (VHH)
VHH: B10 VHH with S30G, S32N, S35T, W115S, Q117R, M120T

Biological target: T1, human PD-1 expressed on cells (CHO TREX human PD1 cell line, full-length human PD-1 sequence) (human, UniProt Q15116 21-288)
T1 construct: Also used for human PD-1 on Jurkat reporter cells, on PathHunter cells and on PHA-stimulated human CD4+ T cells; also called CHO human PD1 cells; CHO human PD-1 cells
Experiment: worded summary of the screens

T1 sequence (Q15116 21-288): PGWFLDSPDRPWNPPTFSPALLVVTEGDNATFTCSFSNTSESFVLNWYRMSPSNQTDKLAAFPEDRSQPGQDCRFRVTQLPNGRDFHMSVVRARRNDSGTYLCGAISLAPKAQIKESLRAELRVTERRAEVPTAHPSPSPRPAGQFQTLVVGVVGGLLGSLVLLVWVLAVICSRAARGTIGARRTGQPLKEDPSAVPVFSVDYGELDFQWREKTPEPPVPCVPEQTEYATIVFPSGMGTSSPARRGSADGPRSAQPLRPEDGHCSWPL

| binding result | Binder |
| --- | --- |
| binds | B1 |
| binds | B2 |
| binds | B3 |
| binds | B4 |
| binds | B5 |
| binds | B6 |
| binds | B7 |
| binds | B8 |
| binds | B9 |
| binds | B10 |
| binds | B11 |
| binds | B12 |
| binds | B13 |
| binds | B14 |
| binds | B15 |
| binds | B16 |
| binds | B17 |
| binds | B18 |
| binds | B19 |

| binding result | Binder |
| --- | --- |
| binds | B20 |
| binds | B21 |
| binds | B22 |
| binds | B23 |
| binds | B24 |
| binds | B25 |
| binds | B26 |
| binds | B27 |
| binds | B28 |
| binds | B29 |
| binds | B30 |
| binds | B31 |
| binds | B32 |
| binds | B33 |
| binds | B34 |
| binds | B35 |
| binds | B36 |
| binds | B37 |
| binds | B38 |

| binding result | Binder |
| --- | --- |
| binds | B39 |
| binds | B40 |
| binds | B41 |
| binds | B42 |
| binds | B43 |
| binds | B44 |
| binds | B45 |
| binds | B46 |
| binds | B47 |
| binds | B48 |
| binds | B49 |
| binds | B50 |
| binds | B51 |
| binds | B52 |
| binds | B53 |
| binds | B54 |
| binds | B55 |
| binds | B56 |
| binds | B57 |
